This series can be described thus: protein stability index of a GFP-peptide fusion (yeast GPS) (PSI 1-4); higher = more stable; sorted into four equal gates, so the index is relative within each strain. The method in brief:
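Tiled 17-residue peptides from yeast proteins were fused downstream of GFP on a plasmid that also expresses Cherry, and the pooled library was carried in yeast. Mid-log cultures grown in leucine-free medium were sorted into four equal gates by GFP/Cherry fluorescence ratio. Plasmids from each gate were PCR-amplified and Illumina-sequenced, and reads were assigned to strains by barcodes. Each peptide's protein stability index is the sum, over gates, of the gate's read frequency multiplied by its gate number.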

± gives the uncertainty stated by the source.

For the sequence GDFLDFQVHERLAPLIK [ARP7], the protein stability index reads like this: (doa10∆) 3.29 ± 0.16; (pdr5∆) 3.29 ± 0.13; (san1∆) 3.42 ± 0.1; (ubr1∆) 3.47 ± 0.098.

Regarding YWVPDWDGVIPTPAIIK [RPO21], the protein stability index by setting is: (doa10∆) 2.34 ± 0.14; (pdr5∆) 2.7 ± 0.096; (san1∆) 2.8 ± 0.081; (ubr1∆) 2.8 ± 0.079.

As for FEPASRLQGIKLLDNIQ [COR1], the protein stability index by setting is: (doa10∆) 2.87 ± 0.064; (pdr5∆) 2.98 ± 0.063; (san1∆) 2.64 ± 0.06; (ubr1∆) 2.54 ± 0.046.

TPKVVRSQDQENPAFLP [SEC65]: the protein stability index was 2.66 ± 0.074 (doa10∆), 2.57 ± 0.067 (pdr5∆), 2.16 ± 0.063 (san1∆) and 2.65 ± 0.055 (ubr1∆).

As to RKSKLNLDNLQKVSQLE [POP4], the protein stability index (doa10∆) amounted to 2.89 ± 0.2.

For the sequence DLKLLFNTEAEQTVSAV [RGR1], the protein stability index (doa10∆) was determined as 2.84 ± 0.088, the protein stability index (pdr5∆) is 2.93 ± 0.085, the protein stability index (san1∆) worked out at 3.33 ± 0.11 and the protein stability index (ubr1∆) was 3.19 ± 0.066.

For SARGIETRPAQVILPMS [FAS2], the protein stability index is, setting by setting: (doa10∆) 3.06 ± 0.08; (pdr5∆) 2.93 ± 0.073; (san1∆) 3 ± 0.068; (ubr1∆) 3.16 ± 0.082.

For QEQGSFQHILRLLNTNV [RPS18A], the protein stability index was found to be 2.97 ± 0.045 (doa10∆), 3.06 ± 0.045 (pdr5∆), 2.91 ± 0.037 (san1∆) and 3.03 ± 0.035 (ubr1∆).

For FLSKPSKALYPDYYMII [SNF2], the protein stability index runs as follows: (doa10∆) 2.31 ± 0.037; (pdr5∆) 2.4 ± 0.045; (san1∆) 2.19 ± 0.047; (ubr1∆) 2.54 ± 0.035.

With ETDNEMNGNGKPGIPRG [SIR3], the protein stability index was found to be 3.16 ± 0.099 (doa10∆), 3.11 ± 0.083 (pdr5∆), 3.39 ± 0.053 (san1∆) and 2.99 ± 0.1 (ubr1∆).

Consider LNIRIQTYGETTAVDAL [RPC19], for which the protein stability index came out at 2.02 ± 0.12 (doa10∆), 1.09 ± 0.11 (pdr5∆), 1.19 ± 0.28 (san1∆) and 1.15 ± 0.077 (ubr1∆).

On to VSNILSAFKFIHTQLSE [YJL039C/NUP192], for which the protein stability index is, setting by setting: (doa10∆) 2.19 ± 0.061; (pdr5∆) 1.92 ± 0.048; (san1∆) 1.47 ± 0.094; (ubr1∆) 1.58 ± 0.037.

In turn, NSPSSALRALQENGTIF [YDL088C/ASM4] had a protein stability index (doa10∆) of 2.13 ± 0.062, a protein stability index (pdr5∆) of 2.05 ± 0.053, a protein stability index (san1∆) of 1.53 ± 0.069 and a protein stability index (ubr1∆) of 2.01 ± 0.039.

Turning to SRGINKGHKFNNTKAGR [RPL15A], the protein stability index amounted to 3.28 ± 0.29 (doa10∆), 3 ± 0.2 (pdr5∆) and 3.4 ± 0.17 (ubr1∆).

Consider KPVKVALIFIFFAYFIG [YJL039C/NUP192], for which the protein stability index was found to be 1.66 ± 0.042 (doa10∆), 1.4 ± 0.037 (pdr5∆), 1.38 ± 0.064 (san1∆) and 1.4 ± 0.027 (ubr1∆).

SLSAYNLTDEGYQWGEE [PRP8] yielded a protein stability index (doa10∆) of 3.33 ± 0.22, a protein stability index (pdr5∆) of 3.12 ± 0.15 and a protein stability index (ubr1∆) of 3.33 ± 0.19.

VNCLELLINTNFNKFFK [PCI8]: the protein stability index turned out to be 1.77 ± 0.045 (doa10∆), 1.88 ± 0.048 (pdr5∆), 1.96 ± 0.065 (san1∆) and 1.99 ± 0.064 (ubr1∆).

For the sequence SQPFIKFLNFRPPNGIK [SSN2], the protein stability index is, setting by setting: (doa10∆) 2.65 ± 0.052; (pdr5∆) 2.31 ± 0.05; (san1∆) 2.23 ± 0.06; (ubr1∆) 2.4 ± 0.039.

DLKKKLNSLKDERSQGE [SMC4] had a protein stability index (doa10∆) of 3.43 ± 0.14, a protein stability index (pdr5∆) of 3.16 ± 0.25, a protein stability index (san1∆) of 3.06 ± 0.16 and a protein stability index (ubr1∆) of 3.71 ± 0.25.

QKQLPQKTRVKLLFDHD [ESC2]: the protein stability index was 2.86 ± 0.057 (doa10∆), 2.93 ± 0.05 (pdr5∆), 3.03 ± 0.039 (san1∆) and 3 ± 0.039 (ubr1∆).

Consider DFKPPYIYSHVNKVPQN [SWP82], for which the protein stability index by setting is: (doa10∆) 2.16 ± 0.12; (pdr5∆) 2.14 ± 0.11; (san1∆) 2.79 ± 0.14; (ubr1∆) 2.62 ± 0.054.

VDLEEVMDTIQEQITLY [SSN8]: the protein stability index reads like this: (doa10∆) 3.33 ± 0.13; (pdr5∆) 3.18 ± 0.087; (san1∆) 3.16 ± 0.079; (ubr1∆) 3.32 ± 0.08.

GEDSTKPLGPCDVFWVQ [POP1]: the protein stability index stood at 3.12 ± 0.094 (doa10∆), 2.97 ± 0.082 (pdr5∆), 3.17 ± 0.072 (san1∆) and 2.8 ± 0.057 (ubr1∆).

With SASFSLKNGDKPHLLKF [RPL6B], the protein stability index reads like this: (doa10∆) 2.4 ± 0.16; (pdr5∆) 2.42 ± 0.23; (san1∆) 3.25 ± 0.14; (ubr1∆) 3.42 ± 0.16.

On to LGNTSSVANTPSEIPDA [SWI3], for which the protein stability index amounted to 2.95 ± 0.059 (doa10∆), 3.06 ± 0.062 (pdr5∆), 3.03 ± 0.091 (san1∆) and 2.98 ± 0.047 (ubr1∆).

For LSKIKFPESIWKDFTVE [YCG1], the protein stability index is, setting by setting: (doa10∆) 2.59 ± 0.049; (pdr5∆) 1.89 ± 0.04; (san1∆) 1.87 ± 0.06; (ubr1∆) 2 ± 0.03.

Take EPKQKANAVQNNNGNSA [SRP21]: the protein stability index runs as follows: (doa10∆) 3.07 ± 0.083; (pdr5∆) 3.24 ± 0.07; (san1∆) 2.85 ± 0.19; (ubr1∆) 3.24 ± 0.12.

The values are drawn from the supplement of paper PMC9732359.
